This series is described as follows: yeast display, Sf9 membrane polyspecificity reagent, FACS + sequencing; frameworks hold sequencing errors. The gist of the method:
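A nanobody's polyreactivity label depends on the gate it was sorted from. Yeast display cells were stained with 10% biotinylated, detergent-solubilized Sf9 membrane reagent for 1 hour at 4 °C, enriched on streptavidin microbeads and sorted by FACS. The low and high (top ~1%) gates were set on anti-HA fluorescence for expression and streptavidin fluorescence for reagent binding.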
As to “QVQLVESGGGLVQAGGSLRLSCAASGFTFSRYAMGWYRQAPGKERELVAAITSRGGSTYYADSVKGRFTISRDNAKNTVYLQMNSLKPEDTAVYYCAARGWYATWLYYYWGQGTQVTVSS”, the “polyreactivity (PSR sort gate)” value is listed as “high polyreactivity”.

For “QVQLVESGGGLVQAGGSLRLSCAASGFTFSRYAMVWYRKAPGKDRELVAVISSSGSRTYYADSVKGRFSISRHNAKNTVHLQMNSLQPEDTAVYYGAAKSYTVTAYEYWGQGTQVTVSS”, the “polyreactivity (PSR sort gate)” value is “high polyreactivity”.

In the case of “QVQLVESGGGLVQAGGSLRLSCAASGFTFSSDAMGWYRQAPGKERELVAAITWRGGTTYYADSVKGRFTISRDNAKNTVYLQMNSLKPEDTAVYYCAVDFKRVIRGSRWGDYWGQGTQVTVSS”, the “polyreactivity (PSR sort gate)” value is reported as “high polyreactivity”.

Turning to “QVQLVESGGGLVQAGGSLRLSCAASGFTFSSNAMGWYRQAPGKERELVAAISFNSTSTYYADSVKGRFTISRDNAKNTVYIQMNSLKPEDTAVYYCAKESPPAEGDSGYDYWGQGTQVTVSS”, the “polyreactivity (PSR sort gate)” value is listed as “low polyreactivity”.

As for “QVQLVESGGGLVQAGGSLRLSCAASGFTFSSYALGWSRQAPGKERELVAAISTRGGSTYYADSVKGRFTISRDNAKNTVYLQRNSLKPEDTADYYCATGGRGGRRYEYWGQGTQVTVSS”, the “polyreactivity (PSR sort gate)” value is on record as “low polyreactivity”.

For the sequence “QVQLVESGGGLVQAGGSLRLSCAASGFTFSSYAMGWYRQAPGKERELVAAINWSGGSTYYADSVKGRFTISRDNAKNTVYLQMNSLKPEDTAVYYCATSVKDRYWVDYWGQGTQVTVSS”, the “polyreactivity (PSR sort gate)” value is “high polyreactivity”.

Take “QVQLVESGGGLVQAGGSLRLSCAASGFTFSSYAMGWYRQAPGKERELVAAITQSGGRTYYADSVKGRFTISRDNAKNTVYLQMNSLKPEDTAVYSCAADVTLWYDYWGQGTQVTVSS”: the “polyreactivity (PSR sort gate)” value is on record as “low polyreactivity”.

With “QVQLVESGGGLVQAGGSLRLSCAASGFTFSSYARGWYRQAPGKEREFVAAIRFSGGSTYYADSVKGRFTISRDNAMNTVYLQMNSLKPVDTAVYYCAKRWGIWPRGYYWGQGTQVSVSS”, the “polyreactivity (PSR sort gate)” value was “low polyreactivity”.

Turning to “QVQLVESGGGLVQAGGSLRLSCAASGFTFSSYTMGWYRQAPGKEREFVAAISRRTGRTYYADSVKGRFTISRDYAKNTVYLQMNSLKPEDTAVFYCAADLYYYGFFWDFGDGFDYWGQGTQVTVSS”, the “polyreactivity (PSR sort gate)” value is given as “high polyreactivity”.

In the case of “QVQLVESGGGLVQAGGSLRLSCAASGFTFSSYTMGWYRQAPGKERELVAAISRRTGRTYYADSVKGRFTISRDNAKNTVYLQMNSLKPEDTEVYYCAARPYWSYRRYDYWGQGTQVTVSS”, the “polyreactivity (PSR sort gate)” value is recorded as “high polyreactivity”.

“QVQLVESGGGLVQAGGSLRLSCAASGFTFSTNAMGWYRPAPGKERELVAAISPDGGTYYADSVKGRFTISRDNAKNTVYLQMNSLIPEDTAVYYCAAVWGRGVWDLYDYWGQGTQVTVSS”: the “polyreactivity (PSR sort gate)” value is reported as “low polyreactivity”.

In the case of “QVQLVESGGGLVQAGGSLRLSCAASGFTFSTYAMGWYRQEPGKEREFVATISWRGTNTYYADSVKGRFTISRDNAKNTVYLQMNSLKPEDTAVYDCAARRRSGYGANDYWGQGTQVTVSS”, the “polyreactivity (PSR sort gate)” value was “high polyreactivity”.

“QVQLVESGGGLVQAGGSLRLSCAASGFTFSVYAMGWSRQAPGKERELVAAITSDGITNYADSVKGRFTISRDNAKNTVYLQMNSLKPEDTAVYYCNADPGYVRGYDYWGQGTQVTVSS”: the “polyreactivity (PSR sort gate)” value is “low polyreactivity”.

Take “QVQLVESGGGLVQAGGSLRLSCAASGFTFSVYAMGWYRQAPGKERELVADIDWSGGSTYYADSVKGRFTISRDNAKNTVYLQMNSLKPEDTAVYYCAADYYYPDSYVQGTSGEYWGQGTQVTVSS”: the “polyreactivity (PSR sort gate)” value is “low polyreactivity”.

“QVQLVESGGGLVQAGGSLRLSCAASGFTFSVYAMGWYRQAPGKERELVASITNGGTTYYADSVKGRFTISRDNAKNTVYLQMNSLKPEDTAVYYCAAKLYSWYHKFVNPTYGYWGQGTQVTVSS”: the “polyreactivity (PSR sort gate)” value is on record as “high polyreactivity”.

In the case of “QVQLVESGGGLVQAGGSLRLSCAASGFTFSWNAMGWYRQAPGKEREFVAAITSSGGSTYADSVKGRFTISRDNAKNTVYLQMNSLKPEDTAVYYCAAGGFSQHGHGYWGQGTQVTVSS”, the “polyreactivity (PSR sort gate)” value was “high polyreactivity”.
